Assay results as given in patent US20060153853A1.

How the values were obtained:
[1] = molecular target: IGF-II (insulin-like growth factor II) (UniProt P01344); test: method not stated in the legend (presumably BIAcore)
[2] = molecular target: IGF-II (insulin-like growth factor II) (UniProt P01344); test: SPR (BIAcore) on immobilised IGF-II; text summing up Table 3
[3] = molecular target: IGF-II (insulin-like growth factor II) (UniProt P01344); test: SPR (BIAcore), IGF-II amine-coupled to CM5 chip, IGFBP-2 as analyte, Langmuir 1:1 fit
[4] = molecular target: IGF-II (insulin-like growth factor II) (UniProt P01344); test: SPR (BIAcore), IGF-II amine-coupled to CM5 chip; ratio against hIGFBP-2
[5] = molecular target: IGF-I (insulin-like growth factor I) (UniProt P05019); test: SPR (BIAcore) on immobilised IGF-I; text summing up Table 2
Sequence of IGF-I (insulin-like growth factor I) (P05019 49-118 limits assumed): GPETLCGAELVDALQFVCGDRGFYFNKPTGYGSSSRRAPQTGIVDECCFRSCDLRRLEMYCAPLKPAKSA

[6] = molecular target: IGF-I (insulin-like growth factor I) (UniProt P05019); test: method not stated in the legend (presumably BIAcore)
[7] = molecular target: IGF-I (insulin-like growth factor I) (UniProt P05019); test: SPR (BIAcore), IGF-I amine-coupled to CM5 chip; ratio against hIGFBP-2
[8] = molecular target: IGF-I (insulin-like growth factor I) (UniProt P05019); test: SPR (BIAcore), IGF-I amine-coupled to CM5 chip, IGFBP-2 as analyte, Langmuir 1:1 fit

Sequence of IGF-II (insulin-like growth factor II) (P01344 25-91 limits assumed): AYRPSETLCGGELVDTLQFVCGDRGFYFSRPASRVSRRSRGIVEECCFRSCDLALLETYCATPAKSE

Des (114-170) K180A K181A hIGFBP-2 (from UniProt P18065 36-113; P18065 207-325)
fold lower affinity (reference not named, presumably native IGFBP-2) [1]: 2 fold

Des(114-170)His hIGFBP-2 (from UniProt P18065 36-113; P18065 207-325)
fold decrease in affinity against native hIGFBP-2 [2]: 2 fold | Kd [3]: 1.14 nM | koff [3]: 0.00013 s⁻¹ | kon [3]: 114000 M⁻¹ s⁻¹ | Rel. KD (KD of hIGFBP-2/KD of hIGFBP-2 mutant) [4]: 0.51 | fold decrease in affinity against native hIGFBP-2 [5]: 5 fold | fold lower affinity (reference not named, presumably native IGFBP-2) [6]: 2 fold | Rel. KD (KD of hIGFBP-2/KD of hIGFBP-2 mutant) [7]: 0.26 | Kd [8]: 3.63 nM | koff [8]: 0.000425 s⁻¹ | kon [8]: 117000 M⁻¹ s⁻¹
